Source: article PMC4866751, “Bacillus licheniformis Contains Two More PerR-Like Proteins in Addition to PerR, Fur, and Zur Orthologues” (PLoS ONE, 2016)
Each block holds one molecule with its values, some of them ahead of it.

Columns and labels:
[1] = biological target: FurBL (BL05249) (Bacillus licheniformis ATCC14580); experiment: SEC; Superdex 200 HiLoad 16/60 gel filtration, Chelex-100-treated buffer A (20 mM Tris-HCl, pH 8.0, 0.1 M NaCl, 5% glycerol); oligomeric state judged by elution profile in the last purification step
[2] = biological target: ZurBL (BL03703) (Bacillus licheniformis ATCC14580); experiment: as above
[3] = biological target: PerRBL (BL00075) (Bacillus licheniformis ATCC14580); experiment: as above
[4] = system: PerR2 (BL00690) (Bacillus licheniformis ATCC 14580); experiment: EMSA; conditions: EMSA: 20 mM Tris-HCl pH 8.0, 50 mM KCl, 5% glycerol, 50 ug/ml BSA, 100 uM MnCl2; 6% PAGE in 45 mM Tris-borate with 100 uM MnCl2; temperature not stated
[5] = biological target: the molecule itself; experiment: SEC; Superdex 200 HiLoad 16/60 gel filtration, Chelex-100-treated buffer A (20 mM Tris-HCl, pH 8.0, 0.1 M NaCl, 5% glycerol); oligomeric state judged by elution profile in the last purification step

stoichiometry N [1]: 2
Molecule: FurBL (BL05249) (natural protein)

stoichiometry N [3]: 2
Molecule: PerRBL (BL00075) (natural protein)

More lines, now with the values behind:

Molecule: ZurBL (BL03703) (natural protein)
stoichiometry N [2]: 2

Molecule: mrgA promoter fragment with PerR box (273 bp)
Kd [4]: 70 nM

B1: PerR2 (BL00690) (natural protein, Bacillus licheniformis ATCC14580, UniProt Q62UQ7 1-154, looked up)
chain: MENETNVKQEAMAQLKRKGIRMTPQRLAIYHYFLANRNHPTIAEIQQSLREIYPAVSTATIYNTIRYFKQEGLIKEMGFTDPLRFDLALEEHDHVICEVCGKIVDFHCPQLEKVKDIAARLTGFKVTHHRLELYGICNDCQAKRKYAAKEKGVR
notes: PerR-like protein BL00690 of Bacillus licheniformis ATCC14580; ORF cloned into the NcoI and BamHI sites of pET-16b (pJL202); Contains structural Zn2+ (~0.8 per monomer); source: E. coli BL21 (DE3) pLysS, purified (heparin-Sepharose, SP-Sepharose, Superdex 200)
stoichiometry N [5]: 2
